In doi:10.1101/2023.03.13.532366 (bioRxiv, 2023):

B1: mIL-12A (p35), untagged subunit of mIL-12 in the cryo-EM complexes (natural protein, mouse, UniProt P43431 23-215, looked up)
chain: RVIPVSGPARCLSQSRNLLKTTDDMVKTAREKLKHYSCTAEDIDHEDITRDQTSTLKTCLPLELHKNESCLATRETSSTTRGSCLPPQKTSLMMTLCLGSIYEDLKMYQTEFQAINAALQNHNHQQIILDKGMLVAIDELMQSLNHNGETLRQKPPVGEADPYRVKMKLCILLHAFSTRVVTINRVMGYLSSA
B2: mIL-12A (p35) of the crystallised mIL-12 (mIL-12a-AviTag-His6, digested with Caspase-3) (natural protein, mouse, UniProt P43431 23-215, looked up)
chain: B1 chain
B3: hIL-23A (p19), subunit of hIL-23 in the cryo-EM complex (natural protein, human, UniProt Q9NPF7 20-189, looked up)
chain: RAVPGGSSPAWTQCQQLSQKLCTLAWSAHPLVGHMDLREEGDEETTNDVPHIQCGDGCDPQGLRDNSQFCLQRIHQGLIFYEKLLGSDIFTGEPSLLPDSPVGQLHASLLGLSQLLQPEGHHWETQQIPSLSPSQPWQRLLLRFKILRSLQAFVAVAARVFAHGAATLSP
B4: hIL-23A (p19) of the crystallised hIL-23 (hIL-23a:hIL-12b co-transfection) (natural protein, human, UniProt Q9NPF7 20-189, looked up)
chain: B3 chain
B5: mIL-12Rβ1_(D1-D5)-Strep-II Tag (non pre-dimerized) (receptor, mouse, UniProt Q60837 20-565, looked up)
chain: QLGASGPGDGCCVEKTSFPEGASGSPLGPRNLSCYRVSKTDYECSWQYDGPEDNVSHVLWCCFVPPNHTHTGQERCRYFSSGPDRTVQFWEQDGIPVLSKVNFWVESRLGNRTMKSQKISQYLYNWTKTTPPLGHIKVSQSHRQLRMDWNVSEEAGAEVQFRRRMPTTNWTLGDCGPQVNSGSGVLGDIRGSMSESCLCPSENMAQEIQIRRRRRLSSGAPGGPWSDWSMPVCVPPEVLPQAKIKFLVEPLNQGGRRRLTMQGQSPQLAVPEGCRGRPGAQVKKHLVLVRMLSCRCQAQTSKTVPLGKKLNLSGATYDLNVLAKTRFGRSTIQKWHLPAQELTETRALNVSVGGNMTSMQWAAQAPGTTYCLEWQPWFQHRNHTHCTLIVPEEEDPAKMVTHSWSSKPTLEQEECYRITVFASKNPKNPMLWATVLSSYYFGGNASRAGTPRHVSVRNQTGDSVSVEWTASQLSTCPGVLTQYVVRCEAEDGAWESEWLVPPTKTQVTLDGLRSRVMYKVQVRADTARLPGAWSHPQRFSFEVQIS
B6: mIL-12B (p40), subunit of mIL-12 in the cryo-EM complexes (mIL-12b-Casp3-AviTag-His6, tags cleaved) (natural protein, mouse, UniProt P43432 23-335, looked up)
chain: MWELEKDVYVVEVDWTPDAPGETVNLTCDTPEEDDITWTSDQRHGVIGSGKTLTITVKEFLDAGQYTCHKGGETLSHSHLLLHKKENGIWSTEILKNFKNKTFLKCEAPNYSGRFTCSWLVQRNMDLKFNIKSSSSSPDSRAVTCGMASLSAEKVTLDQRDYEKYSVSCQEDVTCPTAEETLPIELALEARQQNKYENYSTSFFIRDIIKPDPPKNLQMKPLKNSQVEVSWEYPDSWSTPHSYFSLKFFVRIQRKKEKMKETEEGCNQKGAFLVEKTSTEVQCKGGNVCVQAQDRYYNSSCSKWACVPCRVRS
B7: murine IL-12 (mIL-12), heterodimer of mIL-12A (p35) and mIL-12B (p40), as in the cryo-EM receptor complexes (complex, mouse)
chain 1: B1 chain
chain 2: B6 chain

Assays:
[1] = target: B6; test: cryo-EM structure
[2] = target: T1, mIL-12Rβ2_(D1-D6)-Strep-II Tag (non pre-dimerized) (mouse, UniProt P97378 24-637); test: cryo-EM structure
T1 sequence (looked up): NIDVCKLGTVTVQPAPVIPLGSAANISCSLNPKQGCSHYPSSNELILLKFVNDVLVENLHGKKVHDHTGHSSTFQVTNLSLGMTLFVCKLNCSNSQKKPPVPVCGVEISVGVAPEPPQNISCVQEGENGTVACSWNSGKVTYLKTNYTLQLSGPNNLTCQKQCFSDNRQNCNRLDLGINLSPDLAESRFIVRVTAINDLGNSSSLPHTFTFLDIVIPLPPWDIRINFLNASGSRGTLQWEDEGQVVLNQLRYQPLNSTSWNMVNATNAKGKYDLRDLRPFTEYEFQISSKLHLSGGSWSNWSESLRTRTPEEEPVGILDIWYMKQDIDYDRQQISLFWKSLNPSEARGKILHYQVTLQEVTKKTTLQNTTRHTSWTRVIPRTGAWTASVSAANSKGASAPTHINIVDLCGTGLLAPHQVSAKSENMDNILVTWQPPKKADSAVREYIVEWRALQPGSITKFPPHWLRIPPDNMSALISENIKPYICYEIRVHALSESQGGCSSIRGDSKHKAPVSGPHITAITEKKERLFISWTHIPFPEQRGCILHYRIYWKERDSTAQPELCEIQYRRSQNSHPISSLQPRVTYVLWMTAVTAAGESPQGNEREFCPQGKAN

[3] = target: T2, mIL-12B (p40), untagged, of the crystallised mIL-12 (mouse, UniProt P43432 23-335); test: crystal structure
T2 sequence (looked up): B6 chain

[4] = target: T3, hIL-12B (p40), subunit of hIL-23 in the cryo-EM complex (human, UniProt P29460 23-328); test: cryo-EM structure
T3 sequence (looked up): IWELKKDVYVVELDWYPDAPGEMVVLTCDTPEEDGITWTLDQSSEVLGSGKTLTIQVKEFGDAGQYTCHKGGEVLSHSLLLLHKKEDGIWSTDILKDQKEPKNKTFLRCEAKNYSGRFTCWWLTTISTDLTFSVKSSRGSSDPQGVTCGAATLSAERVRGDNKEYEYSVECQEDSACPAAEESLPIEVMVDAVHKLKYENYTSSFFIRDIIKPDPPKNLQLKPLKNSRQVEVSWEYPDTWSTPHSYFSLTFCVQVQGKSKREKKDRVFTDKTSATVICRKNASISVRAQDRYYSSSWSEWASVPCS

[5] = target: hIL-23R-CaM (complete extracellular segment of human IL-23 receptor fused to calmodulin) (human, UniProt Q5VWK5 24-355; P0DP23 5-149); test: cryo-EM structure
[6] = target: T4, hIL-12B (p40) of the crystallised hIL-23 (hIL-23a:hIL-12b co-transfection) (human, UniProt P29460 23-328); test: crystal structure
T4 sequence (looked up): T3 sequence (looked up)

[7] = target: B5; test: cryo-EM structure

B1: binds [1]; binds [2].

B2: binds [3].

B3: binds [4]; binds [5].

B4: binds [6].

B5: binds [2].

B6: binds [7].

B7: binds [7]; binds [2].
